Test results taken from patent US20130129731A1 (SAMSUNG ELECTRONICS, published 2013).
Like-named read-outs stand apart in the source and are kept apart here.

How the values were obtained:
[1] = molecular target: T1, mouse c-Met antigen (Biacore analyte) (mouse, UniProt P16056 25-931, limits assumed); test: SPR (Biacore), antibody immobilised on a CM5 chip, c-Met antigen injected
Method: (§1) Binding affinity of the IGTML4-4 antibody constructed in Example 1 to c-Met antigens was analyzed using a Biacore (available from GE Healthcare).

[2] = molecular target: T2, human c-Met antigen (Biacore analyte) (human, UniProt P08581 25-932, limits assumed); test: as above
Method: as §1

[3] = molecular target: T1, mouse c-Met antigen (Biacore analyte); test: as above; remark: listed apart in the source
Method: as §1

[4] = molecular target: T2, human c-Met antigen (Biacore analyte); test: as above; remark: listed apart in the source
Method: as §1

BSA (Takara) = molecular target: T3, BSA (Takara) (Bos taurus, UniProt P02769); test: ELISA, antigen coated on the plate, detection with goat anti-human IgG-HRP, absorbance at 450 nm
T3 construct: commercial protein

[5] = molecular target: c-Met on human cells (Caki-1 cells, HUVECs, human primary hepatocytes) (human, UniProt P08581 25-1390); test: cell-based or functional assay
Chain of c-Met on human cells (Caki-1 cells, HUVECs, human primary hepatocytes) (P08581 25-1390): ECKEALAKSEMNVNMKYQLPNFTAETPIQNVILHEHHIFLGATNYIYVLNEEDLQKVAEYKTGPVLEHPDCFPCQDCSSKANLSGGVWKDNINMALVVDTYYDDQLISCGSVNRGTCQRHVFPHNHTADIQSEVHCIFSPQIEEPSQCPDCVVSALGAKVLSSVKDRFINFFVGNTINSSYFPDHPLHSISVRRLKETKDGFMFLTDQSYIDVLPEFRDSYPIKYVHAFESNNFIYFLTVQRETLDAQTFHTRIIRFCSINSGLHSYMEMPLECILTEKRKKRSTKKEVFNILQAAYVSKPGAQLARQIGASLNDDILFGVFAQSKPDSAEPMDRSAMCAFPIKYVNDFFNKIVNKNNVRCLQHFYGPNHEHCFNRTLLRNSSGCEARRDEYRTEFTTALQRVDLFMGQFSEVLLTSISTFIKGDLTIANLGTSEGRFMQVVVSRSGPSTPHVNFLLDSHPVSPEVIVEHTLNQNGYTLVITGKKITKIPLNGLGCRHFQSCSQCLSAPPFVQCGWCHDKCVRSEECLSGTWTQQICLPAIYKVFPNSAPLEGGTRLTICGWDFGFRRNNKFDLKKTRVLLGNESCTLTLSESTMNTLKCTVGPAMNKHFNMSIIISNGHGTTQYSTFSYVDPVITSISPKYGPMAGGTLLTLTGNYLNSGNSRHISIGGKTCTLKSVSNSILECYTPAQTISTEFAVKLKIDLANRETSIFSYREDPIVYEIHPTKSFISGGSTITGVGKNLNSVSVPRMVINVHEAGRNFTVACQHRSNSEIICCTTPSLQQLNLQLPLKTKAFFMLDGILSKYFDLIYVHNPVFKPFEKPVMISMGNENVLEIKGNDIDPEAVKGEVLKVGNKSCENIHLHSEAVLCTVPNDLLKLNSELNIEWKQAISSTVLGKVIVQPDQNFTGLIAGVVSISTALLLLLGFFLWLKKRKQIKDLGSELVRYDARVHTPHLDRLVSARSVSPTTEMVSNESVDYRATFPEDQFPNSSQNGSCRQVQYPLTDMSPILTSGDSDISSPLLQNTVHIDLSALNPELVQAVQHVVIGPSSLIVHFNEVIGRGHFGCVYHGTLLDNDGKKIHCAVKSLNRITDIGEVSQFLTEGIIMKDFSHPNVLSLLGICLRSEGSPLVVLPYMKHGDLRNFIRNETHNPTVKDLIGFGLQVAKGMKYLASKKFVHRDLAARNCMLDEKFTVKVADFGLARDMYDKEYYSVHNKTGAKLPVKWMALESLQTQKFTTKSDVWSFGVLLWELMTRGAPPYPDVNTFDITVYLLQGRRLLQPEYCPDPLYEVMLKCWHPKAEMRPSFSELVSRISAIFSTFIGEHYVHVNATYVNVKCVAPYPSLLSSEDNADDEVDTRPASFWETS

T2 sequence (P08581 25-932 limits assumed): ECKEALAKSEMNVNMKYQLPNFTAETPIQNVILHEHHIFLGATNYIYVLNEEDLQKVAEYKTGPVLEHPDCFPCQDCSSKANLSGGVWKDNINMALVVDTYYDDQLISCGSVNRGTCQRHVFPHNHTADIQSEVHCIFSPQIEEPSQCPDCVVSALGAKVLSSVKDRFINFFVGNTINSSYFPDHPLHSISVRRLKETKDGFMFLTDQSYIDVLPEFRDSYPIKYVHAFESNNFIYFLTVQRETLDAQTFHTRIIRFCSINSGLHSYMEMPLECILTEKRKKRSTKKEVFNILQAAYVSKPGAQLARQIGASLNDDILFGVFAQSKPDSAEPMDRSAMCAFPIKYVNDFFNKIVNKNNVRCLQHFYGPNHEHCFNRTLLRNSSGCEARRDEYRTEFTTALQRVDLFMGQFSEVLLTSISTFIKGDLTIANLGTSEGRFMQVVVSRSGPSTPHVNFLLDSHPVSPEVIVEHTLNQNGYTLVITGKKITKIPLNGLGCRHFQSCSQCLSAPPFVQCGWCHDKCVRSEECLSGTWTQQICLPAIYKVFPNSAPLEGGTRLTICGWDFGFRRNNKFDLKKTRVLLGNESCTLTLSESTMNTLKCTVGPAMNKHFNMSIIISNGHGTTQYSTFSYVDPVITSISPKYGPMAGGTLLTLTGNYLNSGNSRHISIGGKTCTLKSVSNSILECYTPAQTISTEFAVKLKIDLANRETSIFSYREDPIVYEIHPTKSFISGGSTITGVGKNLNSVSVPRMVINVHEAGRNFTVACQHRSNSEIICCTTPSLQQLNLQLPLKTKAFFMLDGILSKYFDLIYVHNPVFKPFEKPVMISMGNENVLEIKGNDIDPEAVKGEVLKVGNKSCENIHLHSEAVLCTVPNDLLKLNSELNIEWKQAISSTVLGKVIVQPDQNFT
T1 sequence (P16056 25-931 limits assumed): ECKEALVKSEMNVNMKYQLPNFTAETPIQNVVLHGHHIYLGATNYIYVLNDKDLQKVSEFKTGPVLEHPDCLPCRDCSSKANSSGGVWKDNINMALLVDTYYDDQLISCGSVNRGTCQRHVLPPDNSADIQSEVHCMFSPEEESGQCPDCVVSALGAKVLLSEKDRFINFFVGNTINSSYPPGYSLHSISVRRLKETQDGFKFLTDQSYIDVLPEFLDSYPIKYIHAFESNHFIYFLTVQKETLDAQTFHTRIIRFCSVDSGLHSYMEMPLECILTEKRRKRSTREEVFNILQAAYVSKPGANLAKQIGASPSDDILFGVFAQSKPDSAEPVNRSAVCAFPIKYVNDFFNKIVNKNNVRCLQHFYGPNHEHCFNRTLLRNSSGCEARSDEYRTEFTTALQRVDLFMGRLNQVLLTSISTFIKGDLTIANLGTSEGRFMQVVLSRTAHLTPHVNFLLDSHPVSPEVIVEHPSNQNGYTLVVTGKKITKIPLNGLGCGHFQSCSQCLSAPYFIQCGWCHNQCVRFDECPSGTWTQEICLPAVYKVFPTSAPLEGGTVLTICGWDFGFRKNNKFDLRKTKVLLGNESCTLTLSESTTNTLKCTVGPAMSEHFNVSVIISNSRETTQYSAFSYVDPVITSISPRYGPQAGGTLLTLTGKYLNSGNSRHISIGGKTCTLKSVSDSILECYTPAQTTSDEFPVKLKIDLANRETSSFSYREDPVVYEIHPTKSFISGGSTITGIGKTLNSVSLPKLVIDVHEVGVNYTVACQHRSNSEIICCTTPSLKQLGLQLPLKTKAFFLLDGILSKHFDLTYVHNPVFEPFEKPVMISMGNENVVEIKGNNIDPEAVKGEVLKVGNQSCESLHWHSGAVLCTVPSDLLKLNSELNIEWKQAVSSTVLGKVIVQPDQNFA
T3 sequence (P02769 25-607 limits assumed): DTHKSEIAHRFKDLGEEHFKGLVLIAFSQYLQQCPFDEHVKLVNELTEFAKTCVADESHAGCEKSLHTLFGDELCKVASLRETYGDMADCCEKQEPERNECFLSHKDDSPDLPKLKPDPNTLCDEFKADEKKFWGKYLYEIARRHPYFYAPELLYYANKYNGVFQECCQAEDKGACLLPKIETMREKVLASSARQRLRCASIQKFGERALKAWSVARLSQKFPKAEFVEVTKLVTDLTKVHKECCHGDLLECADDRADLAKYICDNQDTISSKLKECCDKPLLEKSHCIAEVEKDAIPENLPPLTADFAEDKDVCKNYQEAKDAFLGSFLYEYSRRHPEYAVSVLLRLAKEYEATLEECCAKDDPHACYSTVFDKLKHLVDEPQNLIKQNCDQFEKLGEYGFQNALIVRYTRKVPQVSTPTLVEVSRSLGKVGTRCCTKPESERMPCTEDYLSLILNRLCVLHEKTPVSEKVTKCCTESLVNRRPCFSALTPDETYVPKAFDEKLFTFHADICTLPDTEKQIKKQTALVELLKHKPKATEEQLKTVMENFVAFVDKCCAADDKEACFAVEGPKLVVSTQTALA

B1: IGTML4-4 antibody (antibody, V domains shown)
VH: QVQLLQSGGGLVQPGGSLRVSCAASGFRFSMYVMTWVRQAPGKGLEWVSEISASGASTYYADSVKGRFTMSRDNSKNTVFLQMNSLRVEDTAVYYCARAYRYGMDVWGQGTMVTVSS
VL: DIVMTQSPSSVSASVGDRVTLTCRASQNIGSWLAWYQQKPGNAPKLLIYRASNLRSGVPSRFSGSGSGTDFTLTISSLQPEDFATYFCQQATIFPLTFGGGTRVDIKR
notes: also called anti c-Met antibody
[1]
  Kd: 0.304 nM
  koff: 0.000168 s⁻¹
  kon: 553000 M⁻¹ s⁻¹
[2]
  Kd: 0.398 nM
  koff: 0.000188 s⁻¹
  kon: 471000 M⁻¹ s⁻¹
[3]
  Kd: < 1 nM
[4]
  Kd: < 1 nM
BSA (Takara)
  binding result: no binding
[5]
  degree of Akt phosphorylation relative to the 5D5 antibody (Caki-1 cells, 5 µg/ml antibody, phospho-AKT1 Ser473 sandwich ELISA): ~84%
